Data taken from article PMC8998314, “MYB2 Is Important for Tapetal PCD and Pollen Development by Directly Activating Protease Expression in Arabidopsis”.

T1: HIS-MYB2 (Arabidopsis thaliana, UniProt Q39028 1-273)
T1 sequence: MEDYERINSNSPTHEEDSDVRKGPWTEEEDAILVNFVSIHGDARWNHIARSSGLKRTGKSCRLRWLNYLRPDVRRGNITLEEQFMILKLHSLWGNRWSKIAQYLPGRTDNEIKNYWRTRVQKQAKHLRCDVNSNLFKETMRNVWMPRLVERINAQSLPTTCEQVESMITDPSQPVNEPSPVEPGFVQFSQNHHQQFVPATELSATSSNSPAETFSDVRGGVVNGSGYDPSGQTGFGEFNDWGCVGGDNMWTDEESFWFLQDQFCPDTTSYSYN

B1: CEP1 short probe(s) with AAACCA (dsDNA)
DNA 1: GCTCCTGAAAACCATAATCAGA
DNA 2: TCTGATTATGGTTTTCAGGAGC
B2: CEP1 short probe with TAACTG (dsDNA)
DNA 1: TTAGACAACAGTTATTGTAATG
DNA 2: CATTACAATAACTGTTGTCTAA

Target: T1, HIS-MYB2
Assay: EMSA; EMSA binding buffer (Beyotime Chemiluminescent EMSA kit, composition and pH not stated), 30 min at 25 °C
Settings: protein: recombinant; tags: His (pET-30a); label: biotin

Row | Binder | binding result
1 | B1 | binds
2 | B2 | binds
